# Measured values taken from patent US20060241289A1 (RSR, published 2006).
# Legend:
# [1] = target: TSH receptor coated onto plastic tubes or ELISA plate wells (RSR Ltd) / detergent solubilised TSH receptor; test: Scatchard analysis, TSH receptors coated onto plastic tubes
# [2] = target: T1, TSH receptor coated onto plastic tubes or ELISA plate wells (RSR Ltd) / detergent solubilised TSH receptor; test: Scatchard analysis, 125I-IgG on TSH receptor coated tubes
# T1 construct: also called TSHR coated tubes; TSH receptor coated tubes
# Experimental: Unlabelled IgG or Fab in 50 μL of assay buffer and 50 μL of ¹²⁵I-labelled hMAb IgG or Fab (30,000 cpm in assay buffer) were incubated for 2 hours at room temperature with gentle shaking, washed twice with 1 mL of assay buffer and counted in a gamma counter.
Ka [1] [M⁻¹],Ka [2] [M⁻¹],Binder
2e+10,–,"9D33 (antibody, V domains shown, Mouse monoclonal IgG; also called 9D33 IgG; mouse monoclonal antibody to the TSHR (9D33)) VH: DVQIQQPGTELVKPGASVRLSCKASGYTFTTYWMHWVKQRPGQGLEWIGEIDPSDSYTNYNQKFKGKATLTVDKSSSTAYMHLSSLTSEDSAVYYCSRNYGSGYYFDYWGQGTTLTVSS VL: GVEMTQSPAIMSASPGEKVTMTCSASSSVSYMHWYQQKSGTSPKRWIYDTSKLASGVPARFSGSGSGTSYSLTISSMETEDAATYYCQQWSSNPWTFGGGTKLEIK"
–,5e+10,"hMAb TSHR1 IgG (antibody, V domains shown, also called human monoclonal TSH receptor autoantibody; TSMAb TSHR1 IgG) VH: QVQLVQSGAEVKKPGESLKISCRGSGYRFTSYWINWVRQLPGKGLEWMGRIDPTDSYTNYSPSFKGHVTVSADKSINTAYLQWSSLKASDTGMYYCARLEPGYSSTWSVNWGQGTLVTVSS VL: LTVLTQPPSVSGAPRQRVTISCSGNSSNIGNNAVNWYQQLPGKAPKLLIYYDDQLPSGVSDRFSGSRSGTSASLAIRGLQSEDEADYYCTSWDDSLDSQLFGGGTRLTVLG"
